In general, Tm refers to the temperature at the midpoint of the melting transition.

The conditions of the series: Homo sapiens; pH 7.4; Thermal; CD; Phosphate buffer saline; whole UniProt chain shown.

B1: SH2 domain-containing protein 1A wild type, O60880 (protein)
chain: MDAVAVYHGKISRETGEKLLLATGLDGSYLLRDSESVPGVYCLCVLYHGYIYTYRVSQTETGSWSAETAPGVHKRYFRKIKNLISAFQKPDQGIVIPLQYPVEKKSSARSTQGTTGIREDPDVCLKAP
Regarding B1, the Tm was determined as 57.8 °C.

For the origin of these results see FireProtDB (doi:10.1021/bi034798l).
